Ends that are not written are not given here.
Legend:
K18-biotin hepcidin-25 [1] = target: T1, K18-biotin hepcidin-25 (human, K18-biotin (biotin on Lys 18)); assay: SPR, Biacore, biotin peptide on neutravidin chip, MAb 583 at 5 µg/ml
T1 construct: also called K18-biotin hepcidin-25 tracer
T1 peptide: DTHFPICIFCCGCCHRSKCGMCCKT

NT-biotin hepcidin-25 [2] = target: T2, NT-biotin hepcidin-25 (human, NT-biotin (biotin at the N-terminus)); assay: as above
T2 construct: also called NT-biotin hepcidin-25 tracer; NT-Bio Tracer
T2 peptide: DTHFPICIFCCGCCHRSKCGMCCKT

[3] = target: T3, Human hepcidin peptide (hepcidin-25) (human); assay: cell-based or functional assay
T3 peptide: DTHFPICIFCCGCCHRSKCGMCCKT

K18-biotin hepcidin-25 [4] = target: T1, K18-biotin hepcidin-25; assay: SPR (Biacore 3000, CM5 chip, 25 °C): biotinylated peptide captured on immobilised neutravidin, MAb 583 injected at 5 µg/ml (33.5 nM per the table); column head 'Ka (1/Ms)'
NT-biotin hepcidin-25 [5] = target: T2, NT-biotin hepcidin-25; assay: as above
K18-biotin hepcidin-25 [6] = target: T1, K18-biotin hepcidin-25; assay: SPR (Biacore 3000, CM5 chip, 25 °C): biotinylated peptide captured on immobilised neutravidin, MAb 583 injected at 5 µg/ml (33.5 nM per the table); column head 'Kd (1/s)'
NT-biotin hepcidin-25 [7] = target: T2, NT-biotin hepcidin-25; assay: as above
[8] = target: T3, Human hepcidin peptide (hepcidin-25); assay: antibody titering ELISA, hepcidin 100 ng/well on plate, HRP-goat anti-mouse IgG; antibody 100 ng/well
NT-biotin hepcidin-25 [9] = target: T2, NT-biotin hepcidin-25; assay: SPR, Biacore 3000, biotin peptide on neutravidin CM5 chip, MAb 583 injected at 24 µg/ml, 25 C; hepcidin-25 biotinylated at the N-terminus (NT-biotin) on the chip; MAb 583 at 24 µg/ml
Description: (§1) Biotinylated hepcidin peptides (NT-biotin-hepcidin-25, K18-biotin-hepcidin-25 and K24-biotin-hepcidin-25) were immobilized in flow cells 2-4 (one peptide species per flow cell) by injecting individual peptides at a concentration of 200 μg/ml at a flow rate of 5 μl/min, for 20 min.
(§2) After 3 minutes, injection was stopped and dissociation was followed for 6 min. Regeneration was performed by injecting 10 mM glycine HCl, pH 1.5 at a flow rate of 10 μl/min for 1 min.

K18-biotin hepcidin-25 [10] = target: T1, K18-biotin hepcidin-25; assay: SPR, Biacore 3000, biotin peptide on neutravidin CM5 chip, MAb 583 injected at 24 µg/ml, 25 C; hepcidin-25 biotinylated at K18 (K18-biotin) on the chip; MAb 583 at 24 µg/ml
Description: as §1, §2

[11] = target: T3, Human hepcidin peptide (hepcidin-25); assay: antibody titering ELISA, hepcidin 100 ng/well on plate, HRP-goat anti-mouse IgG; antibody 50 ng/well
K18-biotin hepcidin-25 [12] = target: T1, K18-biotin hepcidin-25; assay: SPR (Biacore 3000, CM5 chip, 25 °C): biotinylated peptide captured on immobilised neutravidin, MAb 583 injected at 5 µg/ml (33.5 nM per the table)
NT-biotin hepcidin-25 [13] = target: T2, NT-biotin hepcidin-25; assay: as above
[14] = target: T4, Human hepcidin 10-25 peptide (human, also: oxidized peptide); assay: competition ELISA on MAb 583 coated plate, NT-biotin hepcidin-25 tracer
T4 construct: also called hep 10-25; Hep 10-25
T4 peptide: CCGCCHRSKCGMCCKT
From the text: (§3) Competition was detected by streptavidin-HRP with the substrate tetramethylbenzidine; the color reaction was stopped with 0.5 N H₂SO₄ and the optical density of the solution read at 450 nm wavelength.
(§4) Binding of biotinylated hepcidin-25 analogs and detection of bound NT-biotin hepcidin-25 was used to detect relative degree of binding of each of the hepcidin peptides relative to hepcidin-25 (data not shown).

Mouse hepcidin-1 peptide = target: T5, Mouse hepcidin-1 peptide (mouse); assay: as above
T5 construct: also called mouse hepcidin-25; murine hepcidin-1
T5 peptide: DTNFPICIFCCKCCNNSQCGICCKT
From the text: as §3, §4

[15] = target: T3, Human hepcidin peptide (hepcidin-25); assay: cell-based or functional assay
K24-biotin hepcidin-25 [16] = target: T6, K24-biotin hepcidin-25 (human, K24-biotin (biotin on Lys 24)); assay: SPR, Biacore 3000, biotin peptide on neutravidin CM5 chip, MAb 583 injected at 24 µg/ml, 25 C; hepcidin-25 biotinylated at K24 (K24-biotin) on the chip; MAb 583 at 24 µg/ml
T6 construct: also called K24-biotin hepcidin-25 tracer
T6 peptide: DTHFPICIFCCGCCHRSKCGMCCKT
Description: as §1, §2

[17] = target: T3, Human hepcidin peptide (hepcidin-25); assay: antibody titering ELISA, hepcidin 100 ng/well on plate, HRP-goat anti-mouse IgG; antibody 25 ng/well
[18] = target: T3, Human hepcidin peptide (hepcidin-25); assay: antibody titering ELISA, hepcidin 100 ng/well on plate, HRP-goat anti-mouse IgG; antibody 12.5 ng/well
K24-biotin hepcidin-25 [19] = target: T6, K24-biotin hepcidin-25; assay: SPR, Biacore 3000, biotin peptide on neutravidin CM5 chip, MAb 583 injected at 24 µg/ml, 25 C
Description: as §1, §2

K18-biotin hepcidin-25 [20] = target: T1, K18-biotin hepcidin-25; assay: as above
Description: as §1, §2

NT-biotin hepcidin-25 [21] = target: T2, NT-biotin hepcidin-25; assay: as above
Description: as §1, §2

Kd (K18-biotin hepcidin-25 [1]): ~0.0075 nM
Kd (NT-biotin hepcidin-25 [2]): ~0.018 nM
IC50 (read off the curve); normalized ferritin (% of uninduced sample) of Fpn-GFP HEK cells, 37 nM hepcidin-25 present [3]: ~2 nM
kon (K18-biotin hepcidin-25 [4]): 1.88e+06 M⁻¹ s⁻¹
kon (NT-biotin hepcidin-25 [5]): 1.33e+06 M⁻¹ s⁻¹
koff (K18-biotin hepcidin-25 [6]): 1.4e-05 s⁻¹
koff (NT-biotin hepcidin-25 [7]): 2.43e-05 s⁻¹
OD 450 nm [8]: 4 OD450
Kd (NT-biotin hepcidin-25 [9]): 0.0516 nM
Kd (K18-biotin hepcidin-25 [10]): 0.878 nM
OD 450 nm [11]: 4 OD450
Ka (K18-biotin hepcidin-25 [12]): 1.34e+11 M⁻¹
Kd (K18-biotin hepcidin-25 [12]): 0.00745 nM
Ka (NT-biotin hepcidin-25 [13]): 5.47e+10 M⁻¹
Kd (NT-biotin hepcidin-25 [13]): 0.0183 nM
binding result [14]: no binding (tested: up to 2000 ng/ml)
binding result (Mouse hepcidin-1 peptide): no binding
EC50 (read off the curve); GFP fluorescence (% of untreated sample) of Fpn-GFP HEK cells, 37 nM hepcidin-25 present [15]: ~2 nM
Kd (K24-biotin hepcidin-25 [16]): 5.54 nM
OD 450 nm [17]: 4 OD450
OD 450 nm [18]: 4 OD450
Ka (K24-biotin hepcidin-25 [19]): 1.8e+08 M⁻¹
Req (K24-biotin hepcidin-25 [19]): 63.1 RU
kobs (K24-biotin hepcidin-25 [19]): 0.0086 s⁻¹
koff (K24-biotin hepcidin-25 [19]): 0.000288 s⁻¹
kon (K24-biotin hepcidin-25 [19]): 52000 M⁻¹ s⁻¹
Ka (K18-biotin hepcidin-25 [20]): 1.14e+09 M⁻¹
Req (K18-biotin hepcidin-25 [20]): 126 RU
kobs (K18-biotin hepcidin-25 [20]): 0.0102 s⁻¹
koff (K18-biotin hepcidin-25 [20]): 5.59e-05 s⁻¹
kon (K18-biotin hepcidin-25 [20]): 63700 M⁻¹ s⁻¹
Ka (NT-biotin hepcidin-25 [21]): 1.94e+10 M⁻¹
Req (NT-biotin hepcidin-25 [21]): 78.8 RU
kobs (NT-biotin hepcidin-25 [21]): 0.00977 s⁻¹
koff (NT-biotin hepcidin-25 [21]): 3.15e-06 s⁻¹
kon (NT-biotin hepcidin-25 [21]): 61100 M⁻¹ s⁻¹
B1: MAb 583 (antibody, V domains shown)
VH: QIQLVQSGPELKKPGETVKISCKASGYTFTNYGMNWVKQAPGKGLKWMGWINTYTGEPTYADDFKGRFAFSLETSASTAYLQINNLKNEDTATYFCTTYATSWYWGQG
VL: DIVLTQSPASLAVSLGQRATISCRASESVDSYGNSFMHWYQQKPGQPPKLLIYRASNLESGIPARFSGSGSRTDFTLTINPVEADDVATYYCQQSNEDLTFG
notes: Murine monoclonal, Protein A purified
